# Assay results as given in patent US20180264123A1 (UNIVERSITY OF MIYAZAKI, published 2018).
# Bridge positions count the residues as written; N and C are the ends. Xyl‑4‑branched CH3O‑PEG (40k)‑CH2 = xylose skeleton-containing 4-branched CH3O-PEG (40k)-CH2 (alkylamine-linked PEG, 40k)
# Target: AM receptor
# Test: cell-based or functional assay
row,Binder,"Intracellular cAMP concentration-increasing effect (%) vs h.AM (1-52); 10^-8 mol/L, HEK293 cells [%]"
1,CH3O-PEG (5k)-(CH2)5-CO-^αNH-(h.AM (1-52)) (disulfide 16-21) peptide: {CH3O‑PEG (5k)‑(CH2)5‑CO‑}-YRQSMNNFQGLRSFGCRFGTCTVQKLAHQIYQFTDKDKDNVAPRSKISPQGY-NH2,81
2,Lys-2-branched CH3O-PEG (40k)-CH2-^αNH-(h.AM (1-52)) (N-terminal α-amino group alkylamine-linked to lysine skeleton-containing 2-branched CH3O-PEG (40k)-CH2-; Cys16-Cys21 disulfide; C-terminal amide) peptide: YRQSMNNFQGLRSFGCRFGTCTVQKLAHQIYQFTDKDKDNVAPRSKISPQGY,102
3,GL-4-branched CH3O-PEG (40k)-CH2-^αNH-(h.AM (1-52)) (disulfide 16-21) peptide: {GL‑4‑branched CH3O‑PEG (40k)‑CH2‑}-YRQSMNNFQGLRSFGCRFGTCTVQKLAHQIYQFTDKDKDNVAPRSKISPQGY-NH2,95
4,Xyl-4-branched CH3O-PEG (40k)-CH2-^αNH-(h.AM (1-52)) (disulfide 16-21) peptide: {Xyl‑4‑branched CH3O‑PEG (40k)‑CH2}-YRQSMNNFQGLRSFGCRFGTCTVQKLAHQIYQFTDKDKDNVAPRSKISPQGY-NH2,81
5,GL-3-branched CH3O-PEG (50k)-CH2-^αNH-(h.AM (1-52)) (disulfide 16-21) peptide: {GL‑3‑branched CH3O‑PEG (50k)‑CH2‑}-YRQSMNNFQGLRSFGCRFGTCTVQKLAHQIYQFTDKDKDNVAPRSKISPQGY-NH2,80
6,CH3O-PEG (20k)-CO-^αNH-(h.AM (1-52)) (disulfide 16-21) peptide: {CH3O‑PEG (20k)‑CO‑}-YRQSMNNFQGLRSFGCRFGTCTVQKLAHQIYQFTDKDKDNVAPRSKISPQGY-NH2,100
7,{CH3O‑PEG (5k)‑(CH2)2‑CH2‑}-NNFQGLRSFGCRFGTCTVQKLAHQIYQFTDKDKDNVAPRSKISPQGY-NH2 (disulfide 11-16) [CH3O-PEG (5k)-(CH2)2-CH2-^αNH-(h.AM (6-52))],90
8,{CH3O‑PEG (5k)‑(CH2)2‑CH2‑}-LRSFGCRFGTCTVQKLAHQIYQFTDKDKDNVAPRSKISPQGY-NH2 (disulfide 6-11) [CH3O-PEG (5k)-(CH2)2-CH2-^αNH-(h.AM (11-52))],80
9,CH3O-PEG (20k)-(CH2)5-CO-^αNH-(h.AM (1-52)) (disulfide 16-21) peptide: {CH3O‑PEG (20k)‑(CH2)5‑CO‑}-YRQSMNNFQGLRSFGCRFGTCTVQKLAHQIYQFTDKDKDNVAPRSKISPQGY-NH2,67
10,{CH3O‑PEG (5k)‑(CH2)2‑CH2‑}-CRFGTCTVQKLAHQIYQFTDKDKDNVAPRSKISPQGY-NH2 (disulfide 1-6) [CH3O-PEG (5k)-(CH2)2-CH2-^αNH-(h.AM (16-52))],39
11,{CH3O‑PEG (20k)‑(CH2)2‑CH2‑}-LRSFGCRFGTCTVQKLAHQIYQFTDKDKDNVAPRSKISPQGY-NH2 (disulfide 6-11) [CH3O-PEG (20k)-(CH2)2-CH2-^αNH-(h.AM (11-52))],97
12,{CH3O‑PEG (20k)‑(CH2)2‑CH2‑}-CRFGTCTVQKLAHQIYQFTDKDKDNVAPRSKISPQGY-NH2 (disulfide 1-6) [CH3O-PEG (20k)-(CH2)2-CH2-^αNH-(h.AM (16-52))],97
13,CH3O-PEG (40k)-(CH2)2-CH2-^αNH-(h.AM (1-52)) (disulfide 16-21) peptide: {CH3O‑PEG (40k)‑(CH2)2‑CH2‑}-YRQSMNNFQGLRSFGCRFGTCTVQKLAHQIYQFTDKDKDNVAPRSKISPQGY-NH2,101
14,GL-2-branched CH3O-PEG (20k)-CO-^αNH-(h.AM (1-52)) (disulfide 16-21) peptide: {GL‑2‑branched CH3O‑PEG (20k)‑CO‑}-YRQSMNNFQGLRSFGCRFGTCTVQKLAHQIYQFTDKDKDNVAPRSKISPQGY-NH2,99
15,GL-2-branched CH3O-PEG (40k)-CO-^αNH-(h.AM (1-52)) (disulfide 16-21) peptide: {GL‑2‑branched CH3O‑PEG (40k)‑CO‑}-YRQSMNNFQGLRSFGCRFGTCTVQKLAHQIYQFTDKDKDNVAPRSKISPQGY-NH2,87
16,GL-4-branched CH3O-PEG (40k)-CO-^αNH-(h.AM (1-52)) (disulfide 16-21) peptide: {GL‑4‑branched CH3O‑PEG (40k)‑CO‑}-YRQSMNNFQGLRSFGCRFGTCTVQKLAHQIYQFTDKDKDNVAPRSKISPQGY-NH2,85
17,{GL‑2‑branched CH3O‑PEG (40k)‑CH2‑}-NNFQGLRSFGCRFGTCTVQKLAHQIYQFTDKDKDNVAPRSKISPQGY-NH2 (disulfide 11-16) [GL-2-branched CH3O-PEG (40k)-CH2-^αNH-(h.AM (6-52))],77
18,CH3O-PEG (10k)-(CH2)2-CH2-^αNH-(h.AM (1-52)) (disulfide 16-21) peptide: {CH3O‑PEG (10k)‑(CH2)2‑CH2‑}-YRQSMNNFQGLRSFGCRFGTCTVQKLAHQIYQFTDKDKDNVAPRSKISPQGY-NH2,101
19,{GL‑2‑branched CH3O‑PEG (20k)‑CO‑}-NNFQGLRSFGCRFGTCTVQKLAHQIYQFTDKDKDNVAPRSKISPQGY-NH2 (disulfide 11-16) [GL-2-branched CH3O-PEG (20k)-CO-^αNH-(h.AM (6-52))],99
20,{GL‑2‑branched CH3O‑PEG (20k)‑CO‑}-LRSFGCRFGTCTVQKLAHQIYQFTDKDKDNVAPRSKISPQGY-NH2 (disulfide 6-11) [GL-2-branched CH3O-PEG (20k)-CO-^αNH-(h.AM (11-52))],104
21,{GL‑2‑branched CH3O‑PEG (20k)‑CO‑}-CRFGTCTVQKLAHQIYQFTDKDKDNVAPRSKISPQGY-NH2 (disulfide 1-6) [GL-2-branched CH3O-PEG (20k)-CO-^αNH-(h.AM (16-52))],96
22,{GL‑2‑branched CH3O‑PEG (40k)‑CO‑}-CRFGTCTVQKLAHQIYQFTDKDKDNVAPRSKISPQGY-NH2 (disulfide 1-6) [GL-2-branched CH3O-PEG (40k)-CO-^αNH-(h.AM (16-52))],61
23,{GL‑4‑branched CH3O‑PEG (40k)‑CO‑}-NNFQGLRSFGCRFGTCTVQKLAHQIYQFTDKDKDNVAPRSKISPQGY-NH2 (disulfide 11-16) [GL-4-branched CH3O-PEG (40k)-CO-^αNH-(h.AM (6-52))],83
24,CH3O-PEG (20k)-(CH2)2-CH2-^αNH-(h.AM (1-52)) (disulfide 16-21) peptide: {CH3O‑PEG (20k)‑(CH2)2‑CH2‑}-YRQSMNNFQGLRSFGCRFGTCTVQKLAHQIYQFTDKDKDNVAPRSKISPQGY-NH2,100
25,CH3O-PEG (30k)-(CH2)2-CH2-^αNH-(h.AM (1-52)) (disulfide 16-21) peptide: {CH3O‑PEG (30k)‑(CH2)2‑CH2‑}-YRQSMNNFQGLRSFGCRFGTCTVQKLAHQIYQFTDKDKDNVAPRSKISPQGY-NH2,100
26,GL-2-branched CH3O-PEG (40k)-CH2-^αNH-(h.AM (1-52)) (disulfide 16-21) peptide: {GL‑2‑branched CH3O‑PEG (40k)‑CH2‑}-YRQSMNNFQGLRSFGCRFGTCTVQKLAHQIYQFTDKDKDNVAPRSKISPQGY-NH2,96
27,GL-2-branched CH3O-PEG (60k)-CH2-^αNH-(h.AM (1-52)) (disulfide 16-21) peptide: {GL‑2‑branched CH3O‑PEG (60k)‑CH2‑}-YRQSMNNFQGLRSFGCRFGTCTVQKLAHQIYQFTDKDKDNVAPRSKISPQGY-NH2,99
28,GL-2-branched CH3O-PEG (80k)-CH2-^αNH-(h.AM (1-52)) (disulfide 16-21) peptide: {GL‑2‑branched CH3O‑PEG (80k)‑CH2‑}-YRQSMNNFQGLRSFGCRFGTCTVQKLAHQIYQFTDKDKDNVAPRSKISPQGY-NH2,94
